In paper PMC3576620, “Endocytosis of somatodendritic NCKX2 is regulated by Src family kinase-dependent tyrosine phosphorylation” (Frontiers in Cellular Neuroscience, 2013):

Legend:
Assay in all cases: co-IP; HEK293 cells co-transfected with HA-AP2M1 and myc-NCKX2-loop variants; lysate (50 mM Tris-Cl pH 7.4, 150 mM NaCl, 1 mM EDTA, 0.5% Triton X-100) incubated with anti-c-myc agarose overnight at 4°C; eluted with c-myc peptide; anti-HA blot, densitometry, n = 5
Details in all cases: partners not purified
[1] = molecular target: T1, c-myc-tagged cytoplasmic loop of NCKX2, phosphomimetic mutant Y365E (rat, UniProt O54701-1 288-478, Y365E)
T1 construct: K+-dependent Na+/Ca2+ exchanger 2 (NCKX2), rat (NM_031743.2; O54701), cytoplasmic loop region, amino acids 288-478, with Y365E; also called myc-NCKX2-loop Y365E; source: HEK293, transfected (calcium phosphate), in lysate; not shown: c-myc, N-terminal, kept
T1 sequence (looked up): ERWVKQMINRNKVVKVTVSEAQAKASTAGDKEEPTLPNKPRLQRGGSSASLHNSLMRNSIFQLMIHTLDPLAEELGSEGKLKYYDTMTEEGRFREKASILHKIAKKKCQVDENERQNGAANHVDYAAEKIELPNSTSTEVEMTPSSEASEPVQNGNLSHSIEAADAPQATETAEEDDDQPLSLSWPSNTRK

[2] = molecular target: T2, c-myc-tagged cytoplasmic loop of NCKX2, Y371A mutant (rat, UniProt O54701-1 288-478, Y371A)
T2 construct: K+-dependent Na+/Ca2+ exchanger 2 (NCKX2), rat (NM_031743.2; O54701), cytoplasmic loop region, amino acids 288-478, with Y371A; also called myc-NCKX2-loop Y371A; source: HEK293, transfected (calcium phosphate), in lysate; not shown: c-myc, N-terminal, kept
T2 sequence (looked up): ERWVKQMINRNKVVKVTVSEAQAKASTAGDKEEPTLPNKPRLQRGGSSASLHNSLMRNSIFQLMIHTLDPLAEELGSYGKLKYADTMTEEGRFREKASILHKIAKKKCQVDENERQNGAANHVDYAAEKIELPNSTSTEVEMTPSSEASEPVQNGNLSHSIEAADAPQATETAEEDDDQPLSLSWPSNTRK

[3] = molecular target: T3, c-myc-tagged cytoplasmic loop of NCKX2 (myc-NCKX2-loop), wild type (rat, UniProt O54701-1 288-478)
T3 construct: K+-dependent Na+/Ca2+ exchanger 2 (NCKX2), rat (NM_031743.2; O54701), cytoplasmic loop region, amino acids 288-478, in pcDNA3.1(+); also called WT; source: HEK293, transfected (calcium phosphate), in lysate; not shown: c-myc, N-terminal, kept
T3 sequence (looked up): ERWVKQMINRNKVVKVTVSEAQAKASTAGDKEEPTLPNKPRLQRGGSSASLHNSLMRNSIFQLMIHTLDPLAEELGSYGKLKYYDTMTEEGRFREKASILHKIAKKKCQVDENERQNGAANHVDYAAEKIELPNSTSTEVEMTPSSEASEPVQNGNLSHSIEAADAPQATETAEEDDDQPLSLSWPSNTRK

B1: HA-tagged AP2M1 (μ subunit of adaptor protein complex 2) (natural protein, UniProt P84092 1-435, looked up)
chain: MIGGLFIYNHKGEVLISRVYRDDIGRNAVDAFRVNVIHARQQVRSPVTNIARTSFFHVKRSNIWLAAVTKQNVNAAMVFEFLYKMCDVMAAYFGKISEENIKNNFVLIYELLDEILDFGYPQNSETGALKTFITQQGIKSQHQTKEEQSQITSQVTGQIGWRREGIKYRRNELFLDVLESVNLLMSPQGQVLSAHVSGRVVMKSYLSGMPECKFGMNDKIVIEKQGKGTADETSKSGKQSIAIDDCTFHQCVRLSKFDSERSISFIPPDGEFELMRYRTTKDIILPFRVIPLVREVGRTKLEVKVVIKSNFKPSLLAQKIEVRIPTPLNTSGVQVICMKGKAKYKASENAIVWKIKRMAGMKESQISAEIELLPTNDKKKWARPPISMNFEVPFAPSGLKVRYLKVFEPKLNYSDHDVIKWVRYIGRSGIYETRC
notes: AP2M1, μ subunit of adaptor protein complex 2 (NM_053837.1; P84092), cloned into pcDNA3; gift from Dr. Ryan (Kim and Ryan, 2009); also called HA-AP2M1; μ subunit of AP-2; source: HEK293, transfected (calcium phosphate), in lysate
[1]
  amount of coimmunoprecipitated HA-AP2M1: 7.83
[2]
  amount of coimmunoprecipitated HA-AP2M1: 41.6
[3]
  amount of coimmunoprecipitated HA-AP2M1: 36.9
